This assay concerns the target T1, Purified 6xHis tagged recombinant FLCN, Q8NFG4.
T1 chain: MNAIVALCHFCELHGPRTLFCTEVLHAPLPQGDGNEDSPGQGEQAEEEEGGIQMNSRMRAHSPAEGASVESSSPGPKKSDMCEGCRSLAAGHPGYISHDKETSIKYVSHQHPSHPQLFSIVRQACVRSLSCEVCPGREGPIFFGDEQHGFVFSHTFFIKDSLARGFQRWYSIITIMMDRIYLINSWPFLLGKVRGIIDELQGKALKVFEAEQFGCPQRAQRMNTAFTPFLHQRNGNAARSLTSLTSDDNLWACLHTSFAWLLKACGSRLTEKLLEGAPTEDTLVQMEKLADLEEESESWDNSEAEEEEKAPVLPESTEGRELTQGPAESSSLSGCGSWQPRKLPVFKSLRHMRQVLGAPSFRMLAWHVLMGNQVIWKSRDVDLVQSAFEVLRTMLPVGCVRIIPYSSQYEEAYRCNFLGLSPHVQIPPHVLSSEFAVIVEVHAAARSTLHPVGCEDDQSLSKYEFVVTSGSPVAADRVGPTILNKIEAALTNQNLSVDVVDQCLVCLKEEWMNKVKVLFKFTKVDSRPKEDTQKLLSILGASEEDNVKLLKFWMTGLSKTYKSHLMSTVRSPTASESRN
As to the kind of experiment: native gel or EMSA. The settings on record: remark: other sources report otherwise. For orientation: A gel shift assay detects complexes by their altered migration in electrophoresis.

B1: Purified 6xHis tagged recombinant FLCN, Q8NFG4 1-579 (natural protein)
chain: MNAIVALCHFCELHGPRTLFCTEVLHAPLPQGDGNEDSPGQGEQAEEEEGGIQMNSRMRAHSPAEGASVESSSPGPKKSDMCEGCRSLAAGHPGYISHDKETSIKYVSHQHPSHPQLFSIVRQACVRSLSCEVCPGREGPIFFGDEQHGFVFSHTFFIKDSLARGFQRWYSIITIMMDRIYLINSWPFLLGKVRGIIDELQGKALKVFEAEQFGCPQRAQRMNTAFTPFLHQRNGNAARSLTSLTSDDNLWACLHTSFAWLLKACGSRLTEKLLEGAPTEDTLVQMEKLADLEEESESWDNSEAEEEEKAPVLPESTEGRELTQGPAESSSLSGCGSWQPRKLPVFKSLRHMRQVLGAPSFRMLAWHVLMGNQVIWKSRDVDLVQSAFEVLRTMLPVGCVRIIPYSSQYEEAYRCNFLGLSPHVQIPPHVLSSEFAVIVEVHAAARSTLHPVGCEDDQSLSKYEFVVTSGSPVAADRVGPTILNKIEAALTNQNLSVDVVDQCLVCLKEEWMNKVKVLFKFTKVDSRPKEDTQKLLSILGASEEDNVKLLKFWMTGLSKTYKSHLMSTVRSPTASESRN
With B1, the stoichiometry N was 2.

The term stoichiometry N denotes a count of units in the complex or per binding partner.

For the origin of these results see article PMC7980781.
